{
  "source": "patent US8969530B2",
  "about": "“Anti-clathrin heavy chain monoclonal antibody for inhibition of tumor angiogenesis and growth and application thereof” (Academia Sinica, priority 2011, dated 2015)",
  "key": {"[1]": {"test_system": "human pancreatic cancer tissue array", "assay": "Immunohistochemistry of Pa65-2 on human pancreatic cancer tissue arrays", "details": "for Labeling Score: score 0-4", "method": "The human pancreatic cancer gene expression arrays (Origene) were analyzed by an ABI9600 thermocycler (Applied Biosystems). Tissue arrays were purchased from Pantomics Inc. Tissue sections were stained with antibodies specific for CHC (Pa65-2), VEGF (GeneTex), HIF-1α (Millipore), NM-IgG, and UEA-1-FITC (Vector). Quantification of DAB intensity was by HistoQuest software (TissueGnostics). The protocol was approved by the institutional Review Board of Human Subjects Research Ethics Committee of Academia Sinica (Taipei).\nWe modified the “Quick Score” methods by reducing the original scales (Siegel et al. (2012) “Cancer statistics 2012” CA Cancer J Clin, 62, 10-29). Two indices were used in evaluating the staining results of tumors. Labeling Index (LI) indicates the number of tumor cells that were immunostained (or “positive cells”) as a proportion of the overall number of cells. A score on a scale of 0-2 was assigned; 0-10%=0, 11-49%=1, 50-100% =2. The second index is the Intensity Index (II), which measures the average intensity of the immunostaining. A score on a scale of 0-2 was assigned; no staining=0, weak staining=1, and strong staining=2. The scores from these two indices were added to give the tumor Labeling Score (LS), which ranges from 0-4."}, "[2]": {"biological_target": "T1, human clathrin heavy chain (CHC) (Homo sapiens, UniProt Q00610)", "T1 construct": "endogenous in cells; host or cells: MIA PaCa-2 (human pancreatic adenocarcinoma cells)", "T1 sequence (Q00610 whole entry)": "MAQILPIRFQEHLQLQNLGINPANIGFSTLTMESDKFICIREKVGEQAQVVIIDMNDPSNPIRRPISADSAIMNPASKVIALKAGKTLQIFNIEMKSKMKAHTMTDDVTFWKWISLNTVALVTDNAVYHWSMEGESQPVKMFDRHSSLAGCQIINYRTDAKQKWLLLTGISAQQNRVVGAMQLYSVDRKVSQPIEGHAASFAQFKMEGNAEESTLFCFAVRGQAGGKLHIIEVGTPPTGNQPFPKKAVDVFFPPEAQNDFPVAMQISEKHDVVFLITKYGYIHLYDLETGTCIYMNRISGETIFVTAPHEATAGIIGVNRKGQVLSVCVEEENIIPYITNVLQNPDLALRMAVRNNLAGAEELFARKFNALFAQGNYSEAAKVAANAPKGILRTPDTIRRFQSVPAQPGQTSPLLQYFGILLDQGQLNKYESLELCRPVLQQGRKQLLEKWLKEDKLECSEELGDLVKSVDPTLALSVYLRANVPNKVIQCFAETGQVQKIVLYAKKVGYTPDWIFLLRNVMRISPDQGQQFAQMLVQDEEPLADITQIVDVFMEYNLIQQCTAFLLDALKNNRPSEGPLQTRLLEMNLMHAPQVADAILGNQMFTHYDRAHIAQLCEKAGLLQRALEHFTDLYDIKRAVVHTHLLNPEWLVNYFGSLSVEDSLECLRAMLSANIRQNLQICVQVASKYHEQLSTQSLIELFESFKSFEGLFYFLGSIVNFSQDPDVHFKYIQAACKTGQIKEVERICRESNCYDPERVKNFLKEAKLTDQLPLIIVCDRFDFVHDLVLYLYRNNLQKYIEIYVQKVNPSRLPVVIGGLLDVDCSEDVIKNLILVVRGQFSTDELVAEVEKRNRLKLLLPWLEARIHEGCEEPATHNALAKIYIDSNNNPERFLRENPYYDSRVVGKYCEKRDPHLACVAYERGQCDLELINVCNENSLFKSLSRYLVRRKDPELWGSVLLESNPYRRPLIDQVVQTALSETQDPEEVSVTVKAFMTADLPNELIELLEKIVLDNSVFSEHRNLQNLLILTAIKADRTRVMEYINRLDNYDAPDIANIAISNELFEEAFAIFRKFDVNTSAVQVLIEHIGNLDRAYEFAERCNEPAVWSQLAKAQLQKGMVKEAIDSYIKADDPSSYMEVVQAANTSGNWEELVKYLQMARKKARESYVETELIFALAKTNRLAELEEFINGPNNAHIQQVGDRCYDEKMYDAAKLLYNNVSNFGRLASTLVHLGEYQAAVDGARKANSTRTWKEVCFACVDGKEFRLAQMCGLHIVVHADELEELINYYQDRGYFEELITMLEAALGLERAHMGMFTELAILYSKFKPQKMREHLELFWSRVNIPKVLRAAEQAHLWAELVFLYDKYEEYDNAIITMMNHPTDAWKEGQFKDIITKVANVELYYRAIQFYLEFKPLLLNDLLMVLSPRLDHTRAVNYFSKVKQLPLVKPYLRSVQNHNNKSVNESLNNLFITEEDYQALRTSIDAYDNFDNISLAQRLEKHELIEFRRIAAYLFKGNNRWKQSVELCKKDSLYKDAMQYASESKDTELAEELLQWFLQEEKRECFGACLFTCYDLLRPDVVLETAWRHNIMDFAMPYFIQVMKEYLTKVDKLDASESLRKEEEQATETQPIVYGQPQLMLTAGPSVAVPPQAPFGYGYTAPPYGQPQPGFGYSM", "assay": "Target identification: immunoaffinity, LC-MS/MS, immunoprecipitation and Western blot", "assay_type": "binding", "details": "immunoprecipitation and Western blot in parallel with mAb X-22; CHC knockdown", "method": "MIA PaCa-2 cell lysates were purified by protein G sepharose (GE), coupled with Pa65-2 and eluted with elution buffer. The eluates were separated by SDS-PAGE. The band of interest was cut from the gel, reduced with dithioerythreitol (DTE) alkylated with iodoacetamide (IAA) and digested with trypsin for 16 h at 37° C. The digested peptides were analyzed by LC-MS/MS sequencing in the Core Facility for Proteomics and Structural Biology Research at Academia Sinica (Taipei).\n(§1) Cells were extracted with RIPA buffer and the supernatants were immunoprecipitated using either anti-CHC antibody, Pa65-2, mAb X-22 (Affinity), or anti-HIF-1α antibody (BD), then analyzed by immunoblotting. The signals were developed using enhanced chemiluminescence reagents (ECL) (Thermo)."}, "[3]": {"test_system": "MIA PaCa-2 cells", "assay": "EGF and transferrin uptake (internalization) assay", "assay_type": "cell-based, human", "details": "pretreated 50 μg/ml at 37° C.", "method": "EGF and Tf uptake assays were carried out using a fluorescence-based approach, as previously described (26). Cells were washed with serum-free medium, incubated in 1% BSA in serum-free medium at 37° C., and pretreated with Pa65-2 or NM-IgG (50 μg/ml) at 37° C. They were then incubated with or without Alex 555-EGF (1 μg/ml, INVITROGEN™) or Alex 555-transferrin (50 μg/ml) at 37° C. or 4° C. The cells were imaged using a Leica TCS SP confocal microscope (Leica)."}, "[4]": {"test_system": "MIA PaCa-2 cells", "assay": "MTT cell proliferation assay", "assay_type": "cell-based, human", "details": "50 μg/ml for 3 days", "method": "Cells were cultured in 96-wells plates. To reduce cancer growth, the cells were culture in Dulbecco's modified Eagle's medium (DMEM) containing 50 μg/ml Pa65-2 or NM-IgG. After incubating for 0, 1, 2, 3 days, the cells were subjected to an MTT assay. The absorbance was determined with a microplate reader at 540 nm. Each assay was repeated for three times."}, "[5]": {"test_system": "HIF-1α expression and VEGF secretion in MIA PaCa-2 cells", "assay": "Western blot of HIF-1α expression and VEGF secretion under DFX hypoxia", "assay_type": "cell-based, human", "details": "DFX 100 μM, 50 μg/ml, 48 h", "method": "as §1\nFor hypoxia experiments, MIA PaCa-2 cells were grown in a Ruskinn Hypoxic Chamber (APM-50D, 18 Astec, Japan) and treated with either 1% O2, 5% CO2 for 18 h, or given DFX, deferoxamine (100 μM, Sigma) treatment for 5 or 16 h. For proteasome inhibitor treatment, MG132 (10 μM, Sigma) was added to culture medium then incubated 5 to 17 h."}, "[6]": {"test_system": "HUVECs", "assay": "Inhibition of HUVEC VEGF internalization", "assay_type": "cell-based, human", "details": "50 μg/ml, VEGF-A 40 ng/ml", "method": "HUVEC were washed with serum-free medium, incubated in 1% BSA in serum-free medium at 37° C., and pretreated with Pa65-2 or NM-IgG (50 μg/ml) at 37° C. They were then incubated with or without VEGF-A (40 ng/ml) at 37° C. or 4° C. After cells were washed, fixed and made permeable. The permeable cells were incubated with anti VEGF-A antibody (A-20, Santa Cruz). Finally, cells were stained using Rhodamine-conjugated secondary antibodies."}},
  "data": [
    {"molecule": "Pa65-2: monoclonal antibody that recognizes human clathrin heavy chain (CHC); VH SEQ ID NO: 2, VL SEQ ID NO: 3 (antibody, listed as Homo sapiens, V domains shown) VH: EVKLVESGGGLVKPGGSLNISCAASGFTFSNYVMSWVRQTPEKRLEWVATISSGDNYMYYPDSVKGRFTISSDNAKNTLFLQMSSLRSEDTALYYCARHFDNYEGNSMDYWGQGTSVTVSSAKTTPPSDYPLA VL: DIVLTQSPATLSVTPGDSVSLSCRASQSIRSNLHWYQQKSHESPRLLIKYASQSISGIPSRFSGSGSGTDFILSINSVATEDFGVYFCQQSNSWPLTFGAGTKLELKRADAAPTVS", "values": [
      {"measurement": "staining of pancreatic cancer tissues", "setting": "[1]; 46 specimens, tissue array", "value": "positively stained"},
      {"measurement": "Labeling Score", "setting": "[1]; Adenocarcinoma I, stage T2N0M0", "value": 3},
      {"measurement": "Labeling Score", "setting": "[1]; Adenocarcinoma I, stage T2N1M0", "value": 2},
      {"measurement": "Labeling Score", "setting": "[1]; Adenocarcinoma I, stage T3N0M0", "value": 3},
      {"measurement": "Labeling Score", "setting": "[1]; Adenocarcinoma I, stage T3N1M0", "value": 3},
      {"measurement": "Labeling Score", "setting": "[1]; Adenocarcinoma II, stage T2N0M0", "value": 2},
      {"measurement": "Labeling Score", "setting": "[1]; Adenocarcinoma II, stage T3N0M0", "value": 3},
      {"measurement": "Labeling Score", "setting": "[1]; Adenocarcinoma II, stage T3N1MX", "value": 3},
      {"measurement": "Labeling Score", "setting": "[1]; Adenocarcinoma II, stage T4N1M1", "value": 4},
      {"measurement": "Labeling Score", "setting": "[1]; Adenocarcinoma III, stage T3N0M0", "value": 3},
      {"measurement": "Labeling Score", "setting": "[1]; Adenocarcinoma III, stage T3N1MX", "value": 3},
      {"measurement": "Labeling Score", "setting": "[1]; Normal Pancreas", "value": 0},
      {"measurement": "staining of normal pancreatic tissues", "setting": "[1]; two normal pancreatic tissues, tissue array", "value": "two normal pancreatic tissues were not"},
      {"measurement": "specificity for CHC", "setting": "[2]", "value": "specifically recognized CHC"},
      {"measurement": "EGF uptake", "setting": "[3]; Alex 555-EGF 1 μg/ml", "value": "blocked"},
      {"measurement": "transferrin uptake", "setting": "[3]; Alex 555-transferrin 50 μg/ml", "value": "blocked"},
      {"measurement": "cancer cell proliferation", "setting": "[4]", "value": "inhibited"},
      {"measurement": "hypoxia-induced HIF-1α expression", "setting": "[5]", "value": "suppressed"},
      {"measurement": "VEGF secretion", "setting": "[5]; culture media", "value": "suppressed"},
      {"measurement": "VEGF internalization", "setting": "[6]", "value": "suppressed VEGF internalization"}
    ]}
  ]
}
